US20150299322A1 (Dana-Farber, published 2015)

T1: mPD-L2-Ig fusion protein (construct not told at the result) (mouse, UniProt Q9WUL5 20-221)
T1 construct: extracellular domain; not shown: Ig part: the methods name mPD-L2-hIgG1/IgA, mPD-L2-mIgG2a/IgA and mPD-L2-hIgG (R&D)
T1 sequence (looked up): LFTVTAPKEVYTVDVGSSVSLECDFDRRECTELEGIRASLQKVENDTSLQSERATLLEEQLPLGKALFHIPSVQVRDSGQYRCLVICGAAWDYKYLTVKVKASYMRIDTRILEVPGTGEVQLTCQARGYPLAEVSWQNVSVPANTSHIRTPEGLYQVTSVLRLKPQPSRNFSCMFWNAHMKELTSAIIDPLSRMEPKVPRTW

T2: recombinant mRGMb-HIS (R&D) (mouse, UniProt Q7TQ33 49-415, limits assumed)
T2 construct: Bought from R&D; not shown: HIS tag
T2 sequence (looked up): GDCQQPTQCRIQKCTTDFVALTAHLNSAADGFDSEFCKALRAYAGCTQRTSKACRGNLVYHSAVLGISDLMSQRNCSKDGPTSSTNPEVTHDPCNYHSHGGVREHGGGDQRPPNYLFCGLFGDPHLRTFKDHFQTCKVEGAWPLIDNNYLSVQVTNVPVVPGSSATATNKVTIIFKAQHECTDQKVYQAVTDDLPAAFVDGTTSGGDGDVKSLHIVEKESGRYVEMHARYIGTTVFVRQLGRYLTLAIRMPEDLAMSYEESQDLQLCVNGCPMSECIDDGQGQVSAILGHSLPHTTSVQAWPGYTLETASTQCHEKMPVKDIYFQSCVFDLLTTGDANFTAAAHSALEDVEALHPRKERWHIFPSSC

T3: mouse RGMb (mRGMb) expressed on transfected cells (mouse, UniProt Q7TQ33 49-415)
T3 construct: whole, on cells; Also used for mRGMb in cell lysates (Western blot); also called DRAGON; 300-mRGMb cells
T3 sequence (looked up): T2 sequence (looked up)

T4: mRGMb-Ig fusion protein (mRGMb-mIgG2a) (mouse, UniProt Q7TQ33 49-415, limits assumed)
T4 construct: extracellular domain; Purified from CHO cell culture supernatants
T4 sequence (looked up): T2 sequence (looked up)

T5: recombinant hRGMb-HIS (R&D) (human, UniProt Q6NW40 46-413)
T5 construct: Bought from R&D; not shown: HIS tag
T5 sequence: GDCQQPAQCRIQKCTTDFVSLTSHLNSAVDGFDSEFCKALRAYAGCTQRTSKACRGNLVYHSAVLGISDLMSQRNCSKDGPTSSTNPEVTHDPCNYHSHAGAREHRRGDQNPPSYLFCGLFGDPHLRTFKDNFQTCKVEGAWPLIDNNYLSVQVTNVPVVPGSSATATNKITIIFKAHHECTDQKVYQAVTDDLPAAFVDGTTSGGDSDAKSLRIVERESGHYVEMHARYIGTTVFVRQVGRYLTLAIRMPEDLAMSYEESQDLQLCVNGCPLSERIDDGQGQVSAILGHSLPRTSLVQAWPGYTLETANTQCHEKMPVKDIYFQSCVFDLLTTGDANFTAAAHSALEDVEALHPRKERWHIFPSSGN

B1: mouse PD-1 (mPD-1) expressed on transfected 300 cells (receptor, UniProt Q02242 25-288, looked up)
chain: LEVPNGPWRSLTFYPAWLTVSEGANATFTCSLSNWSEDLMLNWNRLSPSNQTEKQAAFCNGLSQPVQDARFQIIQLPNRHDFHMNILDTRRNDSGIYLCGAISLHPKAKIEESPGAELVVTERILETSTRYPSPSPKPEGRFQGMVIGIMSALVGIPVLLLLAWALAVFCSTSMSEARGAGSKDDTLKEEPSAAPVPSVAYEELDFQGREKTPELPTACVHTEYATIVFTEGLGASAMGRRGSADGLQGPRPPRHEDGHCSWPL
notes: whole, on cells; also called 300-mPD-1 cells; mPD-1 cells
B2: recombinant mouse BMP-2 (GIBCO) (ligand, UniProt P21274 281-394, looked up)
chain: QAKHKQRKRLKSSCKRHPLYVDFSDVGWNDWIVAPPGYHAFYCHGECPFPLADHLNSTNHAIVQTLVNSVNSKIPKACCVPTELSAISMLYLDENEKVVLKNYQDMVVEGCGCR
notes: Coated on ELISA plates at 1 ug/ml; also called mBMP-2; BMP-2/4
B3: mouse PD-L2 (mPD-L2) expressed on transfected 300 cells (ligand, UniProt Q9WUL5 20-247, looked up)
chain: LFTVTAPKEVYTVDVGSSVSLECDFDRRECTELEGIRASLQKVENDTSLQSERATLLEEQLPLGKALFHIPSVQVRDSGQYRCLVICGAAWDYKYLTVKVKASYMRIDTRILEVPGTGEVQLTCQARGYPLAEVSWQNVSVPANTSHIRTPEGLYQVTSVLRLKPQPSRNFSCMFWNAHMKELTSAIIDPLSRMEPKVPRTWPLHVFIPACTIALIFLAIVIIQRKRI
notes: whole, on cells; also called 300-mPD-L2 cells; mPD-L2 transfected cells
B4: recombinant mouse BMP-4 (R&D) (ligand, UniProt P21275 293-408, looked up)
chain: SPKHHPQRSRKKNKNCRRHSLYVDFSDVGWNDWIVAPPGYQAFYCHGDCPFPLADHLNSTNHAIVQTLVNSVNSSIPKACCVPTELSAISMLYLDEYDKVVLKNYQEMVVEGCGCR
notes: Coated on ELISA plates at 1 ug/ml; also called mBMP-4; BMP-2/4
B5: hPD-L2-mIgG2a fusion protein (Fc fusion)
chain: LFTVTVPKELYIIEHGSNVTLECNFDTGSHVNLGAITASLQKVENDTSPHRERATLLEEQLPLGKASFHIPQVQVRDEGQYQCIIIYGVAWDYKYLTLKVKASYRKINTHILKVPETDEVELTCQATGYPLAEVSWPNVSVPANTSHSRTPEGLYQVTSVLRLKPPPGRNFSCVFWNTHVRELTLASIDLQSQMEPRTHPT
notes: not shown: mouse IgG2a part

What was measured:
[1] = biological target: T6, mouse PD-L1 (mPD-L1) expressed on transfected 300 cells (mouse, UniProt Q9EP73 19-290); assay: cell conjugation assay, flow cytometry
T6 construct: whole, on cells; also called 300-mPDL 1; mPD-L1 cells
Method: (§1) An assay for receptor-ligand binding was developed based on cell to cell binding as determined by flow cytometry. One transfected cell type was labelled with the red dye PKH26 (Sigma) and the other transfected cell with the green dye PKH67 (Sigma) according to the manufacturer's instructions. Red dye-labelled and green dye-labelled cells ([…] each cell type) were incubated in 200 μl of HBSS buffer without calcium and magnesium (GIBCO) supplemented with 10% heat-inactivated FBS (Invitrogen), 15 μg/ml gentamicin (Invitrogen) and 1% HEPES (Invitrogen) in a round bottom 96-well plate for 45 min at 37° C. When the cell conjugation assay was used to test the blocking capacity of antibodies, one transfected cell type was pre-incubated 30 min at RT with antibodies before adding the other type of transfected cells. Conjugate formation was analyzed immediately by flow cytometry using the PE channel for the red dye and the FITC channel for the green dye. The automated plate harvester of the FACSCanto (BD Biosciences) was used for uniformity of cell processing. The instrument settings were as follows, throughput mode: standard, loader settings: sample flow rate at 0.5 μl/second, sample volume and mixing volume at 100 μl, mixing speed at 50 μl/second, number of mixes at 2, and wash volume at 400 μl.
(§2) To test the RGMb:PD-L2 interaction under more physiologic conditions, a cell conjugation assay was used where one transfected cell type was labeled with a red dye and the other transfected cell type with a green dye. The binding of the two cell types was assessed by flow cytometry and indicated by double positive events (yellow dots). […] FIGS. 1L, 1N, 1P, and 1R show only the dot plots without corresponding FSC-SSC plots. As expected, mRGMb cells bound to mPD-L2 cells (FIG. 1K), but not mPD-L1 cells (FIG. 1L). As positive controls, mPD-1 cells bound to both mPD-L2 and mPD-L1 cells (FIGS. 1M-1N). Negative control binding assays had very few conjugates (<0.3%) (FIGS. 1O-1R).

[2] = biological target: T1, mPD-L2-Ig fusion protein (construct not …); assay: ELISA, coated BMP-2, PD-L2-Ig added without RGMb
Method: (§3) To determine if RGMb binds PD-L2 and BMP-2/4 simultaneously, 96-well ELISA plates were coated with BMP-2/4 as above. mPD-L2-hIgG1/IgA, mPD-L2-hIgG (R&D), mPD-L1-hIgG (R&D) or control-Ig fusion proteins at 10 μg/ml were preincubated with 10 μg/ml mRGMb-HIS (R&D) or buffer alone for 15 min. at room temperature (RT), then added to the plates and incubated for 1h at 37° C. Alternatively, 10 μg/ml mRGMb-HIS (R&D) or buffer alone was added first to the plates and incubated for 1h at 37° C. After wash, mPD-L2-Ig or control-Ig fusion proteins were added and incubated for 1h at 37° C. Fab₂ goat anti-hIgG-HRP (Jackson ImmunoResearch Laboratories) at 1:10000 was used for detection.
(§4) To test if RGMb can bind both PD-L2 and BMP at the same time, an ELISA was performed to analyze the binding capacity of PD-L2-Ig fusion protein to immobilized BMP-2/4 in the presence or absence of RGMb. PD-L2 could not directly bind to BMP-2/4, but in the presence of RGMb could form a complex with BMP when RGMb and PD-L2-Ig were added simultaneously (FIG. 4A-4B) or sequentially to BMP-2/4.

[3] = biological target: T2, recombinant mRGMb-HIS (R&D); assay: ELISA, coated BMP-2, mRGMb-HIS bridging PD-L2-Ig
Method: as §3, §4

[4] = biological target: B1; assay: cell conjugation assay, flow cytometry
Method: as §1, §2

[5] = biological target: T3, mouse RGMb (mRGMb) expressed on …; assay: cell conjugation assay, flow cytometry
Method: as §1, §2

[6] = biological target: T4, mRGMb-Ig fusion protein (mRGMb-mIgG2a); assay: flow cytometry on mPD-L2 transfected 300 cells
[7] = biological target: T1, mPD-L2-Ig fusion protein (construct not …); assay: ELISA, coated BMP-4, PD-L2-Ig added without RGMb
Method: as §3, §4

[8] = biological target: T2, recombinant mRGMb-HIS (R&D); assay: ELISA, coated BMP-4, mRGMb-HIS bridging PD-L2-Ig
Method: as §3, §4

[9] = biological target: T5, recombinant hRGMb-HIS (R&D); assay: ELISA, coated hRGMb-HIS, PD-L2-Ig in solution
Method: (§5) To examine RGMa/RGMb/RGMc and PD-L2 interaction, 96-well ELISA plates were coated with 2 or 5 μg/ml of recombinant mRGMa-HIS, mRGMb-HIS, mRGMc-HIS, or hRGMb-HIS (R&D). Then, serial dilutions of mPD-L2-hIgG1/IgA, mPD-L2-mIgG2a/IgA, hPD-L2-mIgG2a or control-Ig fusion proteins were added and incubated for 1h at 37° C. Fab₂ goat anti-hIgG-HRP (Jackson ImmunoResearch Laboratories) or rat anti-mIgG2a-HRP (BD Biosciences) at 1:1000 or 1:10000 were used for detection.

[10] = biological target: T2, recombinant mRGMb-HIS (R&D); assay: ELISA, coated mRGMb-HIS, PD-L2-Ig in solution
Method: as §5

T6 sequence (Q9EP73 19-290): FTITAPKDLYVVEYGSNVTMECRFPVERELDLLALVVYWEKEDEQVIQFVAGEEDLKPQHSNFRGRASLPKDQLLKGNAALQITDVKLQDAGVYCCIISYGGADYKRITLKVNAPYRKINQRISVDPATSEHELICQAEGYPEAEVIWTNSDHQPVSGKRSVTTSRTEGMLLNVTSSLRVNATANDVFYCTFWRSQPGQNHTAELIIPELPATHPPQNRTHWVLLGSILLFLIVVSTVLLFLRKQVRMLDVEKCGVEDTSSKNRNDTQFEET

Binder: B1
- binding result [1]: binds

Binder: B2
- binding result [2]: no binding (tested: 10 ug/ml)
- binding result [3]: binds

Binder: B3
- binding result [4]: binds
- binding result [5]: binds
- binding result [6]: binds

Binder: B4
- binding result [7]: no binding (tested: 10 ug/ml)
- binding result [8]: binds

Binder: B5
- binding result [9]: binds
- binding result [10]: binds
